In patent US20250122292A1 (DOMA BIOPHARMACEUTICAL SUZHOU, published 2025) one finds Kd, koff and kon data, which are given here for two molecules.

Common to all, as to assay: SPR (Biacore 8K, Protein A chip; His-tagged antigen as analyte; 1:1 Langmuir fit)
A general note: Surface plasmon resonance follows binding to a sensor surface in real time, without labels.

Assay [1] addresses fasEGFR-His (ACROBiosystems Inc., Cat #: EGR-C52H5) (monkey). An excerpt: (§1) Dissociation was monitored for 400 seconds.
For assay [2], the target named is T1, hMET-His (ACROBiosystems Inc., Cat #: MET-H5227) (human, UniProt P08581 25-932).
T1 construct: Bought reagent; also called human MET; not shown: His tag
Text: as §1

Assay [3] concerns the target T2, hEGFR-His (ACROBiosystems Inc., Cat #: EGR-H5222) (human, UniProt P00533 25-645).
T2 construct: Bought reagent; also called human EGFR; not shown: His tag
Text: as §1

T1 sequence (P08581 25-932 limits assumed): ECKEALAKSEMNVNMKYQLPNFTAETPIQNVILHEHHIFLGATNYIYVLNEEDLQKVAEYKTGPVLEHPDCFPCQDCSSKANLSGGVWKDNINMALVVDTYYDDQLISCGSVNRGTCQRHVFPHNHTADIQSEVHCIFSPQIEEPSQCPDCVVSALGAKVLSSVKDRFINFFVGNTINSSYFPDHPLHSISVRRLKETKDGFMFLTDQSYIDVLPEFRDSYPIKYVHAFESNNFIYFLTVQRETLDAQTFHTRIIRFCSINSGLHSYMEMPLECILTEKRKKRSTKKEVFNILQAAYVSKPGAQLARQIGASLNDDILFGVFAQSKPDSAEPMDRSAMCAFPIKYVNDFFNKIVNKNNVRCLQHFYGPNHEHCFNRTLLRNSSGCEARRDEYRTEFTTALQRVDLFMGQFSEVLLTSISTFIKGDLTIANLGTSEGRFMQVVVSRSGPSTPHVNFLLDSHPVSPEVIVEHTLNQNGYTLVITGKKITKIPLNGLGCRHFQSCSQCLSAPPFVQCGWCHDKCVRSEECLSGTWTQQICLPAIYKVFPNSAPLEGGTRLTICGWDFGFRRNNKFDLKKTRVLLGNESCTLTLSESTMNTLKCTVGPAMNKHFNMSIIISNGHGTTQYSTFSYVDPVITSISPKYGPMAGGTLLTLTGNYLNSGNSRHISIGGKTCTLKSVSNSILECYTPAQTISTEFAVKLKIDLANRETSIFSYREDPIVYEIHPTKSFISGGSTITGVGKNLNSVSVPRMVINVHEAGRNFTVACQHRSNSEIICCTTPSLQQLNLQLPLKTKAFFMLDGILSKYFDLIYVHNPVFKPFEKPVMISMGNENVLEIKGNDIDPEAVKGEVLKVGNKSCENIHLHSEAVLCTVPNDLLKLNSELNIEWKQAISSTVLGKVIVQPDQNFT

B1: E-6C4 (antibody, V domains shown)
VH: QVQLQQWGPGLVKPSQTLSLTCTVSGGSINSGDYYWSWIRQPPGKGLESIGYIYYSGSTYYNPSLKSRVTISADTSKNQFSLKLTSVTAADTAVYYCARERVYSSSLDYWGQGTLVTVSS
VL: not shown
notes: Anti-EGFR human monoclonal antibody from RenLite mice with the common light chain
Usually Kd stands for a measure of binding affinity in units of concentration. In assay [1], B1 returned an equilibrium dissociation constant (Kd) of 158 nM.

B2: E-6C4-M-2F11 (bispecific antibody, human IgG1, kappa)
heavy 1: not shown
heavy 2: EVQLVESGPGLVKPSETLSLTCTVSGGSISSNYWSWIRQPPGKGLEWIGYIYHSGSTNYNPSLKSRVTISVDTSKNQFSLKLSSVTAADTAVYFCARGPVSIFGVVKYIDLWGRGTLVTVSSASTKGPSVFPLAPSSKSTSGGTAALGCLVKDYFPEPVTVSWNSGALTSGVHTFPAVLQSSGLYSLSSVVTVPSSSLGTQTYICNVNHKPSNTKVDKKVEPKSCDKTHTCPPCPAPELLGGPSVFLFPPKPKDTLMISRTPEVTCVVVDVSHEDPEVKFNWYVDGVEVHNAKTKPREEQYNSTYRVVSVLTVLHQDWLNGKEYKCKVSNKALPAPIEKTISKAKGQPREPQVCTLPPSREEMTKNQVSLSCAVKGFYPSDIAVEWESNGQPENNYKTTPPVLDSDGSFFLVSKLTVDKSRWQQGNVFSCSVMHEALHNHYTQKSLSLSPGK
light: not shown
notes: 1+1 knobs-into-holes bispecific with common light chain; also called anti-EGFR/MET bispecific antibody E-6C4-M-2F11
The term koff denotes the first-order rate constant of dissociation. A high value points to fast dissociation. In general, kon refers to a measure of how fast the partners come together. High values mean fast association, low ones slow association. On to B2, for which, in assay [2], binding was characterised by a dissociation constant (Kd) of 50.5 nM, the off-rate constant (koff) is 0.00187 s⁻¹ and the kon was 37000 M⁻¹ s⁻¹. In assay [1], this molecule came in with a dissociation constant (Kd) of 115 nM, an off-rate constant (koff) of 0.0198 s⁻¹ and an association rate constant (kon) of 172000 M⁻¹ s⁻¹. In assay [3], this molecule returned an equilibrium dissociation constant (Kd) of 70.7 nM, a koff of 0.0215 s⁻¹ and a kon of 304000 M⁻¹ s⁻¹.
